Reference: the supplement of paper PMC9170038

Tested on: MS2 coat protein
Assay: apparent KD of MS2 coat protein; designed switch direction (-1 OFF switch, 1 ON switch): 1; higher = weaker reporter binding
Procedure, shortened: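 Three titration conditions were used: no input, 200 uM small-molecule ligand, and an oligonucleotide input. In each, SNAP-549-labelled MS2 coat protein was raised from 0.7 or 1.5 nM, doubling, to 3 µM over designed RNA switches transcribed on Illumina chips by stalled E. coli RNA polymerase. Curve fits of normalised cluster fluorescence gave values whose per-design median over clusters is the apparent KD.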

[1] = input ligand: microRNA oligo, concentration not stated
[2] = Eterna round: R95, input ligand: FMN 200 uM
[3] = Eterna round: R95, input ligand: microRNA oligo, concentration not stated
[4] = Eterna round: R95, input ligand: none

| Sequence | apparent KD of MS2 coat protein (input ligand: FMN 200 uM) | apparent KD of MS2 coat protein [1] | apparent KD of MS2 coat protein (input ligand: none) | apparent KD of MS2 coat protein [2] | apparent KD of MS2 coat protein [3] | apparent KD of MS2 coat protein [4] |
| --- | --- | --- | --- | --- | --- | --- |
| AGAAGACAUGAGGAUCACCCAUGUACCUCAUAAGGAGAGAGCGAGGAUAUGUAGAGAGAGAGGGAGCAGAAGGUGUGGGAGGAA [Default title] (Eterna round: R96, puzzle: Same State NG 3) | 283 nM | 192 nM | 262 nM |  |  |  |
| AACCGACAUGAGGAUCACCCAUGUAAAUGCAGGGCAGGAUAUCAAUCGGGAGGCCGAAAAUGAGAAGGGCCUAAAA [Onedte] (puzzle: Same State 1) |  |  |  | 46.9 nM | 250 nM | 839 nM |
| AGUCCAGCCUGAGCUGGACAAAAGCAUGUACAUGAGGAUCACCCAUGUCAUGUACAAGCUUUUUGCUCAAAAUAAUA [Mat - hsa-mir-208a - Mod of JL - D33] (puzzle: Sensor for hsa-mir-208a) |  |  |  | 957 nM | 14.8 nM | 607 nM |
| GCUACCAAAUAAGCCAACAUGAGGAUCACCCAUGUAUGUUGGUAGGAUAUCGUAUGCAAAGCAUACGAGAAGGGCUAAGGUAGC [Mat - Same State NG 3 - JL Mod - D80] (Eterna round: R96, puzzle: Same State NG 3) | 57.1 nM | 40.4 nM | 52.5 nM |  |  |  |
| CUAUCUACAGGUGUCUUUGCUCGUCUUAUACAUGAGGAUCACCCAUGUUAUAGCCCGGUGCUUGCGCUGGGCUGAUU [JL ViennaUCT Tearor mod 6] (puzzle: Sensor for hsa-mir-208a) |  |  |  | 79.8 nM | 13.2 nM | 95.7 nM |
| CGUGGGUGGCUGGAGGAUAUUCGAGUGGUAACAUGAGGAUCACCCAUGUGUCGCGCGGUACACGAGGAGAAGGCUGGCGGCCGGC (puzzle: Same State 2) |  |  |  | 34.6 nM | 109 nM | 256 nM |
| ACGCAGCUAGGUGAGGAUAUCGGUGGUAAAACAUGAGGAUCACCCAUGUCCGAAGCUCGGACUUCCGAGAAGGCGCCCGGCUGCA [Velaberi] (Eterna round: R96, puzzle: Same State 2) | 12.7 nM | 78.8 nM | 106 nM |  |  |  |
| AGAUGUUAAUUAGGAUAUGGACACAUGAGGAUCACCCAUGUAACGUAGAUACGAUGUGGUCAAGUCUAGAAGGGAUAGCUAACA [SameState NG2 #76] (Eterna round: R96, puzzle: Same State NG 2) | 39.9 nM | 35.2 nM | 40.3 nM |  |  |  |
| UGGCUCAGACGAGGAUAUAUGUAAUAACAUGAGGAUCACCCAUGUGUCGAGCUUCGGCUCGACACAUAGAAGGCGUCUGAGCCA [SSNG2/2-A2] (Eterna round: R96, puzzle: Same State NG 2) | 14.7 nM | 17.9 nM | 28.2 nM |  |  |  |
| GCUACCAAUAAAGCCAACAUGAGGAUCACCCAUGUAUGUUGGUAGGAUAUCGUUUGCAAAGCAAACGAGAAGGGCUAAGGUAGC [Mat - Same State NG 3 - JL Mod - D76] (Eterna round: R96, puzzle: Same State NG 3) | 39.1 nM | 28.2 nM | 43.9 nM |  |  |  |
| GGAGAACAUGAGGAUCACCCAUGUGGAUGGGCGCUAGGAUAUGCGAGAGGGUGGAGAGAAGCAGAAGGAGUGGAUA [JR_SS1_Sub037] (puzzle: Same State 1) |  |  |  |  | 50.2 nM |  |
| AAAGGAUGAUGUUACAUGAGGAUCACCCAUGUUGUGAUAACUAAGGAUAUGUGUUUAACUAGUUAAUAGAAGGUAGGAUCAUAA [AK SSNG3-V2-3] (Eterna round: R96, puzzle: Same State NG 3) | 150 nM | 84.2 nM | 118 nM |  |  |  |
| AAUUUAAUACAUGAGGAUCACCCAUGUAAUACUUGUAAGAUCAAGGAUAUCAGCUCGUUUAGAGCUGAGAAGGUGAUCACAUGU [SSNG3/19-D3] (Eterna round: R96, puzzle: Same State NG 3) |  | 40.7 nM |  |  |  |  |
| GGCCUGCCGCAAGGAUAUGAAGCUUUCGCUCCGUCAGAAGGUGCACAUGAGGAUCACCCAUGUAUGCAGGCCAAGAAAUAAACC [Tisoenat] (Eterna round: R96, puzzle: Same State NG 1) | 13.2 nM | 25.9 nM | 37.1 nM |  |  |  |
| AGUCCAGCGAAAGCUGGACAAAAGCAUGUACAUGAGGAUCACCCAUGUUCAUGUACAAGCUUUUUGUUCGUCUUAAA [JL mod - D95 - 14] (puzzle: Sensor for hsa-mir-208a) |  |  |  | 314 nM | 13.4 nM | 601 nM |
| AAUUAAGAUUAAGGAUAUCACGUCGUUUAGACGUGAGAAGGUGAUCAUAACAUGAGGAUCACCCAUGUAUUACAUGAAUUAAUU [SSNG1/3-B3] (Eterna round: R96, puzzle: Same State NG 1) | 1040 nM | 284 nM | 1190 nM |  |  |  |
